Test results as given in publication PMC3025021, “Structural Basis of Enzymatic Activity for the Ferulic Acid Decarboxylase (FADase) from Enterobacter sp. Px6-4” (PLoS ONE, 2011).

B1: FADase (ferulic acid decarboxylase) (Enterobacter sp. Px6-4) (protein)
chain: MNTFDKHDLSGFVGKHLVYTYDNGWEYEIYVKNENTLDYRIHSGLVGNRWVKDQQAYIVRVGESIYKISWTEPTGTDVSLIVNLGDSLFHGTIFFPRWVMNNPEKTVCFQNDHIPLMNSYRDAGPAYPTEVIDEFATITFVRDCGANNESVIACAASELPKNFPDNLK
notes: full-length Met1-Lys168, pET-28a(+) EcoRI/HindIII, Ni-NTA purified, E. coli BL21(DE3); 23 kDa subunit, homodimer (44 kDa)

Tests used:
[1] = target: T1, FADase (ferulic acid decarboxylase) (Enterobacter sp. Px6-4, UniProt C6F3U5); assay: X-ray crystal structure, soaking, […] Å; assay type: binding; settings: crystals soaked overnight with 7 mM sodium ferulate; active site of monomer A
T1 construct: full-length Met1-Lys168, pET-28a(+) EcoRI/HindIII, Ni-NTA purified, E. coli BL21(DE3); 23 kDa subunit, homodimer (44 kDa)
T1 sequence (C6F3U5 1-168): B1 chain

COc1cc(/C=C/C(=O)O)ccc1O = system: T2, COc1cc(/C=C/C(=O)O)ccc1O; assay: HPLC decarboxylation assay; assay type: biochemical, Enterobacter sp. Px6-4; settings: 50 mM sodium phosphate pH 4.0, 28 °C (standard activity assay)
T2 construct: full-length Met1-Lys168, pET-28a(+) EcoRI/HindIII, Ni-NTA purified, E. coli BL21(DE3); 23 kDa subunit, homodimer (44 kDa)
Description: (§1) HPLC decarboxylation assay on FADase (ferulic acid decarboxylase)

[2] = target: Ferulic acid decarboxylase (FADase) from Enterobacter sp. Px6-4 (Enterobacter sp. Px6-4); assay: cross-linking; cross-linking of FADase with ethylene glycolbis (EGS), read on a gel
[3] = target: Ferulic acid decarboxylase (FADase) from Enterobacter sp. Px6-4 (Enterobacter sp. Px6-4); assay: SEC; gel-filtration / size exclusion chromatography of recombinant FADase; data not shown
[4] = substrate: COc1cc(/C=C/C(=O)O)ccc1O; assay: HPLC decarboxylation assay; assay type: biochemical, Enterobacter sp. Px6-4; settings: 50 mM sodium phosphate pH 4.0, 28 °C (standard activity assay)
Description: as §1

Molecule | Km (COc1cc(/C=C/C(=O)O)ccc1O) | Vmax (COc1cc(/C=C/C(=O)O)ccc1O) | kcat (COc1cc(/C=C/C(=O)O)ccc1O) | kcat/Km (COc1cc(/C=C/C(=O)O)ccc1O) | further results
COc1cc(/C=C/C(=O)O)ccc1O [sodium ferulate] |  |  |  |  | X-ray crystal structure, soaking, 2.1 Å [1]: The crystal structure of FADase in complex with the substrate analog sodium ferulate
FADase (ferulic acid decarboxylase) (Enterobacter sp. Px6-4; E134A) | 3.52 mM | 285 µM/min | 0.995 s⁻¹ | 280 M⁻¹ s⁻¹ | 
FADase (ferulic acid decarboxylase) (Enterobacter sp. Px6-4; W25A) | 0.73 mM | 39.6 µM/min | 0.02 s⁻¹ | 20 M⁻¹ s⁻¹ | 
Ferulic acid decarboxylase (FADase) from Enterobacter sp. Px6-4 (enzyme) |  |  |  |  | stoichiometry N [2]: 2; stoichiometry N [3]: 2
B1 |  |  |  |  | Km [4]: 2.36 mM; Vmax [4]: 606 µM/min; kcat [4]: 2.15 s⁻¹; kcat/Km [4]: 910 M⁻¹ s⁻¹
